Source: US20260139007A1 (SANFORD BURNHAM PREBYS MEDICAL DISCOVERY INSTITUTE, published 2026)
Numbered stars: 1 amine (or outer) side, 2 acyl side, 3 side chain; on linkers, the order of the positions; unused ones are H or OH. Bridge positions count the residues as written; N and C are the ends. Square brackets hold non-standard residues; d marks the D form. Side chains are listed from the residue outwards. Ends that are not written are not given here. * marks the point of attachment. γGlu = O=C(O)[C@H](CCC(=O)[*:2])N[*:1]; βAsp = O=C(O)[C@H](CC(=O)[*:2])N[*:1]; Palmitoyl = CCCCCCCCCCCCCCCC(=O)*; Lauroyl = CCCCCCCCCCCC(=O)*; Octanoyl = CCCCCCCC(=O)*; Dodecyl = CCCCCCCCCCCC*; βAla = NCCC(=O)O

Experiments:
[1] = molecular target: FLAG-tagged EphA4 stably expressed in immortalized cells (HEK-EphA4 cells); assay: cell-based or functional assay
[2] = molecular target: T1, EphA4 Fc (human EphA4 Fc, #CJ75, Novoprotein, or mouse EphA4 Fc, #641-A4, R&D Systems/BioTechne) (human or mouse, UniProt P54764 20-547); assay: competition ELISA, inhibition of ephrin-A5 AP binding to immobilized EphA4 Fc, with 40 mg/mL delipidated HSA
T1 construct: extracellular domain; bought reagents; also called EphA4 extracellular domain fused to the Fc portion of an antibody; not shown: Fc portion of an antibody
T1 sequence (P54764 20-547): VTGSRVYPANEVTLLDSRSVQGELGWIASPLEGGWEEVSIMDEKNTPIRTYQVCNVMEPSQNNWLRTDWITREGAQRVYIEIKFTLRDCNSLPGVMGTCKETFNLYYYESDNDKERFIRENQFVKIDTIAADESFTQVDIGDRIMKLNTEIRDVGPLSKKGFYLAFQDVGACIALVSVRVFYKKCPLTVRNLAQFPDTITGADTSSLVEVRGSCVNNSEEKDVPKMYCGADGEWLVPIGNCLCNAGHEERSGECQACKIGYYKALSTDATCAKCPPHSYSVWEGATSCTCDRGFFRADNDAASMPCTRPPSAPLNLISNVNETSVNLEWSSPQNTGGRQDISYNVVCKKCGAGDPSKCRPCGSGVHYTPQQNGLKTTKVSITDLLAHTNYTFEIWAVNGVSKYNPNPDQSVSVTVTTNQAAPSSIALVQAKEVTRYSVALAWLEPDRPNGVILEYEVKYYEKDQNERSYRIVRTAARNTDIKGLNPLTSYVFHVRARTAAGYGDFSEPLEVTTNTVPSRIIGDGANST

[3] = molecular target: T1, EphA4 Fc (human EphA4 Fc, #CJ75, …); assay: competition ELISA, inhibition of ephrin-A5 AP binding to immobilized EphA4 Fc
[4] = molecular target: T1, EphA4 Fc (human EphA4 Fc, #CJ75, …); assay: competition ELISA, ephrin-A5 AP on immobilized EphA4 Fc
[5] = molecular target: T1, EphA4 Fc (human EphA4 Fc, #CJ75, …); assay: competition ELISA, ephrin-A5 AP on immobilized EphA4 Fc, same experiments
[6] = molecular target: T1, EphA4 Fc (human EphA4 Fc, #CJ75, …); assay: competition ELISA, inhibition of ephrin-A5 AP binding to immobilized EphA4 Fc, with serum albumin (40 mg/mL HSA by the text; the cell has no footnote)
[7] = molecular target: T1, EphA4 Fc (human EphA4 Fc, #CJ75, …); assay: competition ELISA, inhibition of ephrin-A5 AP binding to immobilized EphA4 Fc; 0 time point, compound diluted in mouse plasma in vitro (apparent IC50)

B1: APY-d3-PEG4 (peptide)
peptide: XPYCVYRXSWSCXXX
modifications: β-alanine at 1 and 8; disulfide bond Cys4-Cys12 (Cyc (4,12)); three 6-aminohexanoic acid (Ahx) residues and propargyl-glycine (Pra) after Cys12; 30 kDa methoxy-PEG on Pra through a triazole (click chemistry); free C-terminal acid (-OH)
- IC50 for inhibition of EphA4 tyrosine phosphorylation (pY596) induced by ephrin-A5 Fc in HEK-EphA4 cells, ELISA of cell lysates [1]: ~700 nM
- fold loss of potency against APY-d3, EphA4 tyrosine phosphorylation in HEK-EphA4 cells [1]: ~2.5 fold

B2: compound 4 (peptide)
peptide: [βAla]PYCVYK(Octanoyl)[βAla]SWSC-NH2
modifications: disulfide 4-12; N-terminus assumed
SMILES: CCCCCCCC(=O)NCCCC[C@@H]1NC(=O)[C@H](Cc2ccc(O)cc2)NC(=O)[C@H](C(C)C)NC(=O)[C@@H](NC(=O)[C@H](Cc2ccc(O)cc2)NC(=O)[C@@H]2CCCN2C(=O)CCN)CSSC[C@@H](C(N)=O)NC(=O)[C@H](CO)NC(=O)[C@H](Cc2c[nH]c3ccccc23)NC(=O)[C@H](CO)NC(=O)CCNC1=O
notes: also called peptide 4; βAPYCVYK(octanoyl)βASWSC-NH2
- IC50 [2]: 0.1 µM
- IC50 [3]: 0.034 µM

B3: compound 5 (peptide)
peptide: [βAla]PYCVYK(Octanoyl)[βAla]SWSCGGRG-NH2
modifications: disulfide 4-12; N-terminus assumed
SMILES: CCCCCCCC(=O)NCCCC[C@@H]1NC(=O)[C@H](Cc2ccc(O)cc2)NC(=O)[C@H](C(C)C)NC(=O)[C@@H](NC(=O)[C@H](Cc2ccc(O)cc2)NC(=O)[C@@H]2CCCN2C(=O)CCN)CSSC[C@@H](C(=O)NCC(=O)NCC(=O)N[C@@H](CCCNC(=N)N)C(=O)NCC(N)=O)NC(=O)[C@H](CO)NC(=O)[C@H](Cc2c[nH]c3ccccc23)NC(=O)[C@H](CO)NC(=O)CCNC1=O
notes: also called peptide 5
- IC50 [2]: 0.075 µM
- IC50 [3]: 0.026 µM

B4: compound 6 (peptide)
peptide: [βAla]PYCVYK([Gly-octanyl])[βAla]SWSC-NH2
modifications: disulfide 4-12
notes: also called peptide 6; βAPYCVYK(octanyl-G)βASWSC-NH2
- IC50 [2]: 0.13 µM
- IC50 [3]: 0.042 µM

B5: compound 7 (peptide)
peptide: XPYCVYRXSWSCGGKG
modifications: β-alanine at 1 and 8; octanoyl on the side chain of the Lys of the C-terminal GGKG; C-terminal amide; disulfide bond Cys4-Cys12 (cyclic)
notes: also called peptide 7
- IC50 [2]: 0.11 µM
- IC50 [3]: 0.034 µM

B6: compound 8 (peptide)
peptide: [βAla]PYCVYK(Lauroyl)[βAla]SWSC-NH2
modifications: disulfide 4-12; N-terminus assumed
SMILES: CCCCCCCCCCCC(=O)NCCCC[C@@H]1NC(=O)[C@H](Cc2ccc(O)cc2)NC(=O)[C@H](C(C)C)NC(=O)[C@@H](NC(=O)[C@H](Cc2ccc(O)cc2)NC(=O)[C@@H]2CCCN2C(=O)CCN)CSSC[C@@H](C(N)=O)NC(=O)[C@H](CO)NC(=O)[C@H](Cc2c[nH]c3ccccc23)NC(=O)[C@H](CO)NC(=O)CCNC1=O
notes: also called peptide 8; βAPYCVYK(lauroyl)βASWSC-NH2
- fold decrease in potency against APY-d3 similarly modified with a C8 lipid [4]: > 10 fold
- IC50 [3]: 0.39 µM

B7: compound 9 (peptide)
peptide: [βAla]PYCVYK([Gly-Dodecyl])[βAla]SWSC-NH2
modifications: disulfide 4-12
notes: also called peptide 9; βAPYCVYK(lauryl-G)βASWSC-NH2
- fold decrease in potency against APY-d3 similarly modified with a C8 lipid [4]: > 10 fold
- IC50 [3]: 0.59 µM

B8: compound 10 (peptide)
peptide: [βAla]PYCVYK([βAsp-Lauroyl])[βAla]SWSC-NH2
modifications: disulfide 4-12; N-terminus assumed
SMILES: CCCCCCCCCCCC(=O)N[C@@H](CC(=O)NCCCC[C@@H]1NC(=O)[C@H](Cc2ccc(O)cc2)NC(=O)[C@H](C(C)C)NC(=O)[C@@H](NC(=O)[C@H](Cc2ccc(O)cc2)NC(=O)[C@@H]2CCCN2C(=O)CCN)CSSC[C@@H](C(N)=O)NC(=O)[C@H](CO)NC(=O)[C@H](Cc2c[nH]c3ccccc23)NC(=O)[C@H](CO)NC(=O)CCNC1=O)C(=O)O
notes: also called peptide 10; βAPYCVYK(lauroyl-βD)βASWSC-NH2
- IC50 [3]: 0.11 µM

B9: compound 11 (peptide)
peptide: [βAla]PYCVYK([γGlu-Lauroyl])[βAla]SWSC-NH2
modifications: disulfide 4-12; N-terminus assumed
SMILES: CCCCCCCCCCCC(=O)N[C@@H](CCC(=O)NCCCC[C@@H]1NC(=O)[C@H](Cc2ccc(O)cc2)NC(=O)[C@H](C(C)C)NC(=O)[C@@H](NC(=O)[C@H](Cc2ccc(O)cc2)NC(=O)[C@@H]2CCCN2C(=O)CCN)CSSC[C@@H](C(N)=O)NC(=O)[C@H](CO)NC(=O)[C@H](Cc2c[nH]c3ccccc23)NC(=O)[C@H](CO)NC(=O)CCNC1=O)C(=O)O
notes: also called peptide 11; βAPYCVYK(lauroyl-γE)βASWSC-NH2
- IC50 [3]: 0.084 µM

B10: compound 12 (peptide)
peptide: XPYCVYRXSWSCGGKG
modifications: β-alanine at 1 and 8; lauroyl on the side chain of the Lys of the C-terminal GGKG; C-terminal amide; disulfide bond Cys4-Cys12 (cyclic)
notes: also called peptide 12
- IC50 [2]: 0.92 µM
- IC50 [3]: 0.24 µM

B11: compound 16 (peptide)
peptide: XPYCVYRXSWSCGGKG
modifications: β-alanine at 1 and 8; myristoyl-γGlu-γGlu on the side chain of the Lys of the C-terminal GGKG; C-terminal amide; disulfide bond Cys4-Cys12 (cyclic)
notes: also called peptide 16
- IC50 [2]: 1.37 µM
- IC50 [3]: 0.077 µM

B12: compound 1 (peptide)
peptide: APYCVYK[βAla]SWSC-NH2
modifications: disulfide 4-12; N-terminus assumed
SMILES: CC(C)[C@@H]1NC(=O)[C@@H](NC(=O)[C@H](Cc2ccc(O)cc2)NC(=O)[C@@H]2CCCN2C(=O)[C@H](C)N)CSSC[C@@H](C(N)=O)NC(=O)[C@H](CO)NC(=O)[C@H](Cc2c[nH]c3ccccc23)NC(=O)[C@H](CO)NC(=O)CCNC(=O)[C@H](CCCCN)NC(=O)[C@H](Cc2ccc(O)cc2)NC1=O
notes: also called peptide 1; APYCVYKβASWSC-NH2
- fold decrease in potency (IC50) against APY-d2 [5]: ~2 fold
- IC50 [6]: 0.055 µM
- IC50 [3]: 0.067 µM

B13: compound 17 (peptide)
peptide: [βAla]PYCVYK([γGlu-Palmitoyl])[βAla]SWSC-NH2
modifications: disulfide 4-12; N-terminus assumed
SMILES: CCCCCCCCCCCCCCCC(=O)N[C@@H](CCC(=O)NCCCC[C@@H]1NC(=O)[C@H](Cc2ccc(O)cc2)NC(=O)[C@H](C(C)C)NC(=O)[C@@H](NC(=O)[C@H](Cc2ccc(O)cc2)NC(=O)[C@@H]2CCCN2C(=O)CCN)CSSC[C@@H](C(N)=O)NC(=O)[C@H](CO)NC(=O)[C@H](Cc2c[nH]c3ccccc23)NC(=O)[C@H](CO)NC(=O)CCNC1=O)C(=O)O
notes: also called peptide 17; βAPYCVYK(palmitoyl-γE)βASWSC-NH2
- IC50 [3]: 2.3 µM

B14: compound 19 (peptide)
peptide: XPYCVYRXSWSCGGKG
modifications: β-alanine at 1 and 8; palmitoyl-γGlu-γGlu on the side chain of the Lys of the C-terminal GGKG; C-terminal amide; disulfide bond Cys4-Cys12 (cyclic)
notes: also called peptide 19
- IC50 [3]: 0.16 µM

B15: compound 20 (peptide)
peptide: [βAla]PYCVYR[βAla]SWSCGGGSK([γGlu-γGlu-Palmitoyl])G-NH2
modifications: disulfide 4-12; N-terminus assumed
SMILES: CCCCCCCCCCCCCCCC(=O)N[C@@H](CCC(=O)N[C@@H](CCC(=O)NCCCC[C@H](NC(=O)[C@H](CO)NC(=O)CNC(=O)CNC(=O)CNC(=O)[C@@H]1CSSC[C@H](NC(=O)[C@H](Cc2ccc(O)cc2)NC(=O)[C@@H]2CCCN2C(=O)CCN)C(=O)N[C@@H](C(C)C)C(=O)N[C@@H](Cc2ccc(O)cc2)C(=O)N[C@@H](CCCNC(=N)N)C(=O)NCCC(=O)N[C@@H](CO)C(=O)N[C@@H](Cc2c[nH]c3ccccc23)C(=O)N[C@@H](CO)C(=O)N1)C(=O)NCC(N)=O)C(=O)O)C(=O)O
notes: also called peptide 20
- IC50 [3]: 0.19 µM

B16: APY-d3-PEG1 (peptide)
peptide: XPYCVYRXSWSCXXK
modifications: β-alanine at 1 and 8; disulfide bond Cys4-Cys12 (cyclic); 30 kDa methoxy-PEG joined through linker1 at the C-terminus (amide formation with 30 kDa methoxy-PEG succinimidyl carboxymethyl ester on precursor 1, βAPYCVYRβASWSCβAβAK-NH2, SEQ ID NO: 36)
notes: also called βAPYCVYRβASWSC-linker1-PEG
- IC50 [3]: 0.18 µM

B17: APY-d3-PEG2 (peptide)
peptide: XPYCVYRXSWSCXXK
modifications: β-alanine at 1 and 8; disulfide bond Cys4-Cys12 (cyclic); 30 kDa methoxy-PEG joined through linker2 at the C-terminus (amide formation with 30 kDa methoxy-PEG-(CH2)5COO-NHS on precursor 1, βAPYCVYRβASWSCβAβAK-NH2, SEQ ID NO: 36)
notes: also called βAPYCVYRβASWSC-linker2-PEG
- IC50 [3]: 0.083 µM

B18: APY-d3-PEG3 (peptide)
peptide: XPYCVYRXSWSCXK
modifications: β-alanine at 1 and 8; disulfide bond Cys4-Cys12 (cyclic); 30 kDa methoxy-PEG joined at the C-terminus through an oxime linkage (APY-d3-βAla-glyoxyl with methoxy-PEG-CONH(CH2)2-ONH2)
notes: also called βAPYCVYRβASWSC-linker3-PEG
- IC50 [3]: 0.015 µM

B19: compound 14 (peptide)
peptide: XPYCVYRXSWSCGGKG
modifications: β-alanine at 1 and 8; lauroyl-γ-glutamic acid on the side chain of the Lys of the C-terminal GGKG; C-terminal amide; disulfide bond Cys4-Cys12 (cyclic)
notes: also called peptide 14
- IC50 [7]: 0.081 µM

B20: compound 3 (peptide)
peptide: [βAla]PYCVYK[βAla]SWSC-NH2
modifications: disulfide 4-12; N-terminus assumed
SMILES: CC(C)[C@@H]1NC(=O)[C@@H](NC(=O)[C@H](Cc2ccc(O)cc2)NC(=O)[C@@H]2CCCN2C(=O)CCN)CSSC[C@@H](C(N)=O)NC(=O)[C@H](CO)NC(=O)[C@H](Cc2c[nH]c3ccccc23)NC(=O)[C@H](CO)NC(=O)CCNC(=O)[C@H](CCCCN)NC(=O)[C@H](Cc2ccc(O)cc2)NC1=O
notes: also called peptide 3; βAPYCVYKβASWSC-NH2
- fold decrease in potency (IC50) against APY-d3 [5]: ~2 fold
- IC50 [3]: 0.07 µM
